Test system: Abp1 PPIs
Assay: DHFR-PCA of Abp1 SH3-swapped baits (Fig. 2B-D, S2C, S2F);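 as to Protein-protein interaction distance between Abp1 SH3-swapped baits, to ABP1: Euclidean distance between DHFR-PCA score profiles of the baits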;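 as to Protein-protein interaction distance between Abp1 SH3-swapped baits, to BEM1-2: Euclidean distance between DHFR-PCA score profiles of the baits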;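 as to Protein-protein interaction distance between Abp1 SH3-swapped baits, to BOI1: Euclidean distance between DHFR-PCA score profiles of the baits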;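 as to Protein-protein interaction distance between Abp1 SH3-swapped baits, to BZZ1-1: Euclidean distance between DHFR-PCA score profiles of the baits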
Type: cell-based, Saccharomyces cerevisiae
Procedure, shortened: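 Yeast DHFR-PCA in which Abp1 baits, carrying their SH3 replaced by CRISPR–Cas9 with one of 27 yeast SH3s or human CTTN, HCLS1 or DBNL SH3s, were mated against 575 SH3-associated DHFR F[3] preys plus 40 negative controls. Four tests were run per PPI. Diploids were selected twice (48 h, 30 °C), then grown 4 days on PCA selection media.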

B1: ABP1: yeast SH3-containing protein; SH3-deleted (D) or gene-deleted (KO) strain (protein, UniProt P15891 2-592, looked up)
Actin-binding protein: ALEPIDYTTHSREIDAEYLKIVRGSDPDTTWLIISPNAKKEYEPESTGSSFHDFLQLFDETKVQYGLARVSPPGSDVEKIIIIGWCPDSAPLKTRASFAANFAAVANNLFKGYHVQVTARDEDDLDENELLMKISNAAGARYSIQTSSKQQGKASTPPVKKSFTPSKSPAPVSKKEPVKTPSPAPAAKISSRVNDNNDDDDWNEPELKERDFDQAPLKPNQSSYKPIGKIDLQKVIAEEKAKEDPRLVQKPTAAGSKIDPSSDIANLKNESKLKRDSEFNSFLGTTKPPSMTESSLKNDDDKVIKGFRNEKSPAQLWAERKAKQNSGNAETKAEAPKPEVPEDEPEGEPDVKDLKSKFEGLAASEKEEEEMENKFAPPPKKSEPTIISPKPFSKPQEPVKAEEAEQPKTDYKKIGNPLPGMHIEADNEEEPEENDDDWDDDEDEAAQPPLPSRNVASGAPVQKEEPEQEEIAPSLPSRNSIPAPKQEEAPEQAPEEEIEEEAEEAAPQLPSRSSAAPPPPPRRATPEKKPKENPWATAEYDYDAAEDNELTFVENDKIINIEFVDDDWWLGELEKDGSKGLFPSNYVSLGN
In the case of B1, the “Protein-protein interaction distance between Abp1 SH3-swapped baits, to ABP1” value (Abp1 bait with swapped SH3, distance to bait with ABP1 SH3, sheet Fig2C) is reported as 0.00, the “Protein-protein interaction distance between Abp1 SH3-swapped baits, to BBC1” value (distance to Abp1 bait with BBC1 SH3, sheet Fig2C) is reported as 7.08 and the “Protein-protein interaction distance between Abp1 SH3-swapped baits, to BEM1-1” value (distance to Abp1 bait with BEM1-1 SH3, sheet Fig2C) is reported as 14.06. For the same molecule, the “Protein-protein interaction distance between Abp1 SH3-swapped baits, to BEM1-2” value (distance to Abp1 bait with BEM1-2 SH3, sheet Fig2C) was 32.3, the “Protein-protein interaction distance between Abp1 SH3-swapped baits, to BOI1” value (distance to Abp1 bait with BOI1 SH3, sheet Fig2C) was 11.59 and the “Protein-protein interaction distance between Abp1 SH3-swapped baits, to BOI2” value (distance to Abp1 bait with BOI2 SH3, sheet Fig2C) was 14.52. The “Protein-protein interaction distance between Abp1 SH3-swapped baits, to BUD14” value (distance to Abp1 bait with BUD14 SH3, sheet Fig2C) was 17.23, the “Protein-protein interaction distance between Abp1 SH3-swapped baits, to BZZ1-1” value (distance to Abp1 bait with BZZ1-1 SH3, sheet Fig2C) was 9.504 and the “Protein-protein interaction distance between Abp1 SH3-swapped baits, to BZZ1-2” value (distance to Abp1 bait with BZZ1-2 SH3, sheet Fig2C) was 10.54. The “Protein-protein interaction distance between Abp1 SH3-swapped baits, to CDC25” value (distance to Abp1 bait with CDC25 SH3, sheet Fig2C) was 26.13, the “Protein-protein interaction distance between Abp1 SH3-swapped baits, to CTTN” value (distance to Abp1 bait with CTTN SH3, sheet Fig2C) was 9.394 and the “Protein-protein interaction distance between Abp1 SH3-swapped baits, to CYK3” value (distance to Abp1 bait with CYK3 SH3, sheet Fig2C) was 26.78. For the same molecule, the “Protein-protein interaction distance between Abp1 SH3-swapped baits, to DBNL” value (distance to Abp1 bait with DBNL SH3, sheet Fig2C) was 8.805, the “Protein-protein interaction distance between Abp1 SH3-swapped baits, to FUS1” value (distance to Abp1 bait with FUS1 SH3, sheet Fig2C) was 18.44 and the “Protein-protein interaction distance between Abp1 SH3-swapped baits, to HCLS1” value (distance to Abp1 bait with HCLS1 SH3, sheet Fig2C) was 7.682. The “Protein-protein interaction distance between Abp1 SH3-swapped baits, to HOF1” value (distance to Abp1 bait with HOF1 SH3, sheet Fig2C) was 30.98, the “Protein-protein interaction distance between Abp1 SH3-swapped baits, to HSE1” value (distance to Abp1 bait with HSE1 SH3, sheet Fig2C) was 9.43 and the “Protein-protein interaction distance between Abp1 SH3-swapped baits, to LSB1” value (distance to Abp1 bait with LSB1 SH3, sheet Fig2C) was 13.24. For the same molecule, the “Protein-protein interaction distance between Abp1 SH3-swapped baits, to LSB3” value (distance to Abp1 bait with LSB3 SH3, sheet Fig2C) was 13.53, the “Protein-protein interaction distance between Abp1 SH3-swapped baits, to MYO3” value (distance to Abp1 bait with MYO3 SH3, sheet Fig2C) was 12.85 and the “Protein-protein interaction distance between Abp1 SH3-swapped baits, to MYO5” value (distance to Abp1 bait with MYO5 SH3, sheet Fig2C) was 12.37. The “Protein-protein interaction distance between Abp1 SH3-swapped baits, to NBP2” value (distance to Abp1 bait with NBP2 SH3, sheet Fig2C) was 16.16, the “Protein-protein interaction distance between Abp1 SH3-swapped baits, to PEX13” value (distance to Abp1 bait with PEX13 SH3, sheet Fig2C) was 10.96 and the “Protein-protein interaction distance between Abp1 SH3-swapped baits, to PIN3” value (distance to Abp1 bait with PIN3 SH3, sheet Fig2C) was 11.43. The “Protein-protein interaction distance between Abp1 SH3-swapped baits, to RVS167” value (distance to Abp1 bait with RVS167 SH3, sheet Fig2C) was 9.548, the “Protein-protein interaction distance between Abp1 SH3-swapped baits, to SDC25” value (distance to Abp1 bait with SDC25 SH3, sheet Fig2C) was 33.14 and the “Protein-protein interaction distance between Abp1 SH3-swapped baits, to SHO1” value (distance to Abp1 bait with SHO1 SH3, sheet Fig2C) was 8.989. For the same molecule, the “Protein-protein interaction distance between Abp1 SH3-swapped baits, to SLA1-1” value (distance to Abp1 bait with SLA1-1 SH3, sheet Fig2C) was 28.73, the “Protein-protein interaction distance between Abp1 SH3-swapped baits, to SLA1-2” value (distance to Abp1 bait with SLA1-2 SH3, sheet Fig2C) was 19.01 and the “Protein-protein interaction distance between Abp1 SH3-swapped baits, to SLA1-3” value (distance to Abp1 bait with SLA1-3 SH3, sheet Fig2C) was 13.16. The “Protein-protein interaction distance between Abp1 SH3-swapped baits, to YSC84” value (distance to Abp1 bait with YSC84 SH3, sheet Fig2C) was 13.97.

B2: YBL039C (protein, UniProt P28274 1-579, looked up)
CTP synthase 1: MKYVVVSGGVISGIGKGVLASSTGMLMKTLGLKVTSIKIDPYMNIDAGTMSPLEHGECFVLDDGGETDLDLGNYERYLGVTLTKDHNITTGKIYSHVIAKERKGDYLGKTVQIVPHLTNAIQDWIERVAKIPVDDTGMEPDVCIIELGGTVGDIESAPFVEALRQFQFKVGKENFALIHVSLVPVIHGEQKTKPTQAAIKGLRSLGLVPDMIACRCSETLDKPTIDKIAMFCHVGPEQVVNVHDVNSTYHVPLLLLEQKMIDYLHARLKLDEISLTEEEKQRGLELLSKWKATTGNFDESMETVKIALVGKYTNLKDSYLSVIKALEHSSMKCRRKLDIKWVEATDLEPEAQESNKTKFHEAWNMVSTADGILIPGGFGVRGTEGMVLAARWARENHIPFLGVCLGLQIATIEFTRSVLGRKDSHSAEFYPDIDEKNHVVVFMPEIDKETMGGSMRLGLRPTFFQNETEWSQIKKLYGDVSEVHERHRHRYEINPKMVDELENNGLIFVGKDDTGKRCEILELKNHPYYIATQYHPEYTSKVLDPSKPFLGLVAASAGILQDVIEGKYDLEAGENKFNF
In the case of B2, the “medrep (log2 median colony size normalized to plate background)” value (Fig2B, bait ABP1, label = prey, Replicates 4) is reported as 3.877.
